Source: article PMC6769930, “Endoglin Protein Interactome Profiling Identifies TRIM21 and Galectin-3 as New Binding Partners” (Cells, 2019)

How the values were obtained:
Test in all cases: peptide or protein array; ProtoArray human protein Microarray v5.0 (over 9000 human proteins arrayed) probed with recombinant sEng in two replicates; detection with anti-endoglin mAb SN6h and HRP secondary antibody; hits with Z-score >=2.0 in both arrays
Settings in all cases: both partners purified
[1] = molecular target: T1, Cell cycle associated protein 1 (CAPRIN1), transcript variant 1 (human, UniProt Q14444-1 1-709)
T1 construct: human CAPRIN1, transcript variant 1; source: bought: ProtoArray human protein Microarray v5.0 (Life Technologies), individually purified and arrayed
T1 sequence (looked up): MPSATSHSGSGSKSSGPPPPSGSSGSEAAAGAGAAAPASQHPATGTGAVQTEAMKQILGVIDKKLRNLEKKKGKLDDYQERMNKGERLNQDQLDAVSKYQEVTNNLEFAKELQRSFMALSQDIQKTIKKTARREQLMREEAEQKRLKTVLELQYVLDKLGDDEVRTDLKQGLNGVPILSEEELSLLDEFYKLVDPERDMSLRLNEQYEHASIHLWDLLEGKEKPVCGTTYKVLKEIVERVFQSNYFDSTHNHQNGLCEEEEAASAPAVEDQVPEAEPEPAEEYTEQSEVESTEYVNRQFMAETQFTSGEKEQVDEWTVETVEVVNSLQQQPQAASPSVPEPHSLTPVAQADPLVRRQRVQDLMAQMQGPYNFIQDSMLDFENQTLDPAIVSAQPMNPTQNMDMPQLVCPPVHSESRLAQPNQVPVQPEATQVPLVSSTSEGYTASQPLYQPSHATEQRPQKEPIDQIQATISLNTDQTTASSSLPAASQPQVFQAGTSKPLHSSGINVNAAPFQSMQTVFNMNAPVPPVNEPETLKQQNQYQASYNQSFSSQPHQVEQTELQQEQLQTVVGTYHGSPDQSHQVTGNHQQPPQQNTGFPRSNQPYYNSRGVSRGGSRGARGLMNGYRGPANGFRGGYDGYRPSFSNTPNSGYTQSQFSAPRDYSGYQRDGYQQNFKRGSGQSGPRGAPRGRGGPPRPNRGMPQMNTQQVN

[2] = molecular target: T2, YTH domain family, member 2 (YTHDF2) (human, UniProt Q9Y5A9 1-579)
T2 construct: human YTHDF2; source: bought: ProtoArray human protein Microarray v5.0 (Life Technologies), individually purified and arrayed
T2 sequence (looked up): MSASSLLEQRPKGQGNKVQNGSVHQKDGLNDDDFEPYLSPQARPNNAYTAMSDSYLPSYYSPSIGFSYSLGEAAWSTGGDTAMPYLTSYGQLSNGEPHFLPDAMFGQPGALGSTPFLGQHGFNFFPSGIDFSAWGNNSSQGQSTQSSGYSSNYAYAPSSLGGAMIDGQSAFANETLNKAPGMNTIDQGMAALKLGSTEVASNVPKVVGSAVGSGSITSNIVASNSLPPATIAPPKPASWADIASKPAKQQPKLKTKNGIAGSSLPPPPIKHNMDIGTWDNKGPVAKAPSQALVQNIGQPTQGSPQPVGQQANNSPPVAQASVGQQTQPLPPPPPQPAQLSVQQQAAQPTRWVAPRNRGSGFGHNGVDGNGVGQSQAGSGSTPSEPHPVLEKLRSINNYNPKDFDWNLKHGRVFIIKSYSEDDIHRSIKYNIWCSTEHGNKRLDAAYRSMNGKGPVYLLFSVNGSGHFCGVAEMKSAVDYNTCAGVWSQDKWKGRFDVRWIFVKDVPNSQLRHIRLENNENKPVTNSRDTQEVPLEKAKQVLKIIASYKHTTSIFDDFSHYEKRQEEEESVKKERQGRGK

[3] = molecular target: T3, Lamin A/C (LMNA), transcript variant 2 (human, UniProt P02545-2 1-572)
T3 construct: source: bought: ProtoArray human protein Microarray v5.0 (Life Technologies), individually purified and arrayed
T3 sequence (looked up): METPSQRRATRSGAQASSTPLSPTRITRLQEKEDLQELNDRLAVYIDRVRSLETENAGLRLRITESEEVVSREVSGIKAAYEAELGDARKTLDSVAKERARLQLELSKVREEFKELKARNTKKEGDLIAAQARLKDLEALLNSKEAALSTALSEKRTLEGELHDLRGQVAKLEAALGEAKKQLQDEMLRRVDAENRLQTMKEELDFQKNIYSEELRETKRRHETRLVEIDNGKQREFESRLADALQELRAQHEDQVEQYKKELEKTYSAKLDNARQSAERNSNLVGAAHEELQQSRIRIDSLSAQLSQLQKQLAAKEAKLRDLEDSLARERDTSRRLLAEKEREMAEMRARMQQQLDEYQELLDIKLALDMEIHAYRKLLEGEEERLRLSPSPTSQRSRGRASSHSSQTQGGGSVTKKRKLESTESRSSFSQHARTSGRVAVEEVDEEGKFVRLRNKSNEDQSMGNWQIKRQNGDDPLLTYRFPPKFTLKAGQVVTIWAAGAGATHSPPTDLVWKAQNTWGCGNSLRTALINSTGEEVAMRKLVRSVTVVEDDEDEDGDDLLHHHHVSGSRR

[4] = molecular target: RNA polymerase-associated protein RTF1 homolog (RTF1) (human, UniProt Q92541 1-710)

binding result [1]: binds | binding result [2]: binds | binding result [3]: binds | binding result [4]: binds
B1: recombinant human soluble endoglin (sEng; Glu26-Gly586) (domain or fragment, UniProt P17813 26-586, looked up)
chain: ETVHCDLQPVGPERGEVTYTTSQVSKGCVAQAPNAILEVHVLFLEFPTGPSQLELTLQASKQNGTWPREVLLVLSVNSSVFLHLQALGIPLHLAYNSSLVTFQEPPGVNTTELPSFPKTQILEWAAERGPITSAAELNDPQSILLRLGQAQGSLSFCMLEASQDMGRTLEWRPRTPALVRGCHLEGVAGHKEAHILRVLPGHSAGPRTVTVKVELSCAPGDLDAVLILQGPPYVSWLIDANHNMQIWTTGEYSFKIFPEKNIRGFKLPDTPQGLLGEARMLNASIVASFVELPLASIVSLHASSCGGRLQTSPAPIQTTPPKDTCSPELLMSLIQTKCADDAMTLVLKKELVAHLKCTITGLTFWDPSCEAEDRGDKFVLRSAYSSCGMQVSASMISNEAVVNILSSSSPQRKKVHCLNMDSLSFQLGLYLSPHFLQASNTIEPGQQSFVQVRVSPSVSEFLLQLDSCHLDLGPEGGTVELIQGRAAKGNCVSLLSPSPEGDPRFSFLLHFYTVPIPKTGTLSCTVALRPKTGSQDQEVHRTVFMRLNIISPDLSGCTSKG
notes: human endoglin (CD105), extracellular domain, Glu26-Gly586; The same bought protein was the probe of the array and the analyte of the BLI; also called recombinant human endoglin/CD105 protein; source: bought: R&D Systems (1097-EN), purified recombinant
